{"source": "patent US20150273048A1", "key": {"[1]": {"target": "TL-M2e5x fusion protein (Toll-like receptor ligand sequence plus five tandem heterologous M2e domain)", "assay": "ELISA on VLPs and virus with 14C2"}, "[2]": {"target": "TL-M2e5x fusion protein (Toll-like receptor ligand sequence plus five tandem heterologous M2e domain)", "assay": "ELISA on VLPs with 14C2"}}}
{"substance": "Influenza A virus M2 monoclonal antibody 14C2 (Abcam Inc., Cambridge, Mass.)", "values": [{"measurement": "fold reactivity relative to A/Philippines/2/82 virus", "setting": "[1]", "result": 500, "unit": "fold"}, {"measurement": "fold reactivity relative to M2WT VLP", "setting": "[2]", "result": "> 60", "unit": "fold"}]}
